System: Escherichia coli TOP10
Experiment: shrunken log2 fold change of peptide-encoding DNA abundance (4.5 h post-induction vs induction); higher = less antimicrobial activity (less host growth inhibition)
Conditions: time post-induction: 4.5 h; library: site-saturation at positions 5, 18, 19, 20
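Note: peptides expressed intracellularly from a pBAD plasmid library in pooled LB shake-flask culture, induced with 0.3% L-arabinose, DNA abundance read by NGS, three biological replicates, DESeq2 with apeglm shrinkage.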

Sequence	shrunken log2 fold change
RRIRLRPPRLPRPRPRPPGCPRP	0.558
RRIRRRPPRLPRPRPRPCMMPRP	-0.292
RRIRNRPPRLPRPRPRPYGWPRP	-0.012
RRIRNRPPRLPRPRPRPSYPPRP	0.0469
RRIRLRPPRLPRPRPRPCVHPRP	-0.377
RRIRRRPPRLPRPRPRPDCYPRP	-0.236
RRIRFRPPRLPRPRPRPEPPPRP	0.702
RRIRYRPPRLPRPRPRPCGSPRP	0.00387
RRIRFRPPRLPRPRPRPYNDPRP	-0.641
RRIRPRPPRLPRPRPRPWVSPRP	0.0233
RRIRQRPPRLPRPRPRPVVRPRP	0.169
RRIRIRPPRLPRPRPRPNIDPRP	-0.619
RRIRRRPPRLPRPRPRPHQIPRP	0.0553
RRIRQRPPRLPRPRPRPVYSPRP	-0.0563
RRIRVRPPRLPRPRPRPQDKPRP	-0.603
RRIRKRPPRLPRPRPRPIFHPRP	0.381
RRIRTRPPRLPRPRPRPVTLPRP	-0.37
RRIRWRPPRLPRPRPRPNRQPRP	0.175
RRIRIRPPRLPRPRPRPVDYPRP	-0.0672
RRIRYRPPRLPRPRPRPQLQPRP	-0.137

Sequence	shrunken log2 fold change
RRIRWRPPRLPRPRPRPPRWPRP	0.591
RRIRIRPPRLPRPRPRPEMPPRP	0.0112
RRIRERPPRLPRPRPRPYMRPRP	-0.188
RRIRYRPPRLPRPRPRPYGCPRP	-0.143
RRIRFRPPRLPRPRPRPVISPRP	-0.674
RRIRLRPPRLPRPRPRPQRHPRP	-0.0803
RRIRYRPPRLPRPRPRPGYRPRP	-0.46
RRIRPRPPRLPRPRPRPGAWPRP	0.132
RRIRERPPRLPRPRPRPSSAPRP	0.0581
RRIRARPPRLPRPRPRPQEAPRP	0.197
RRIRNRPPRLPRPRPRPYSDPRP	-0.031
RRIRERPPRLPRPRPRPGEIPRP	0.0895
RRIRLRPPRLPRPRPRPYDIPRP	0.00601
RRIRTRPPRLPRPRPRPGWLPRP	0.445
RRIRARPPRLPRPRPRPPCKPRP	0.204
RRIRFRPPRLPRPRPRPQTQPRP	0.0508
RRIRARPPRLPRPRPRPWYMPRP	-0.958
RRIRGRPPRLPRPRPRPIRHPRP	0.0519
RRIRTRPPRLPRPRPRPSMPPRP	-0.363
RRIRARPPRLPRPRPRPVMVPRP	0.0116

Sequence	shrunken log2 fold change
RRIRSRPPRLPRPRPRPYILPRP	-0.69
RRIRFRPPRLPRPRPRPPGMPRP	0.461
RRIRCRPPRLPRPRPRPWGDPRP	-0.142
RRIRKRPPRLPRPRPRPCTRPRP	-0.103
RRIRQRPPRLPRPRPRPWRTPRP	-0.152
RRIRHRPPRLPRPRPRPVYKPRP	-0.665
RRIRQRPPRLPRPRPRPKTQPRP	0.121
RRIRWRPPRLPRPRPRPRGIPRP	0.234
RRIRDRPPRLPRPRPRPFNEPRP	0.0103
RRIRRRPPRLPRPRPRPLGIPRP	0.984
RRIRCRPPRLPRPRPRPPRLPRP	0.873
RRIRHRPPRLPRPRPRPLDIPRP	-0.105
RRIRARPPRLPRPRPRPSVIPRP	-0.0459
RRIRIRPPRLPRPRPRPARNPRP	-0.179
RRIRIRPPRLPRPRPRPCNLPRP	-0.877
RRIRWRPPRLPRPRPRPLNAPRP	0.438
RRIRGRPPRLPRPRPRPRKYPRP	0.0397
RRIRHRPPRLPRPRPRPISIPRP	0.0201
RRIRQRPPRLPRPRPRPWSRPRP	0.00812
RRIRIRPPRLPRPRPRPYTMPRP	-0.758

Reference: the supplement of paper PMC9112550, “Optimization of the antimicrobial peptide Bac7 by deep mutational scanning” (BMC Biology, 2022)
